Assay results taken from patent US20260069656A1, “Nutritive Polypeptides and Formulations Thereof, and Methods of Production and Use Thereof” (Axcella Health Inc., priority 2013, published 2026).

B1: SEQID-00343: nutritive polypeptide (protein)
chain: MATLIAPSHHSRVEDAEALRNAFKGWGADDKAIIAILGHRNVHQRQEIRKAYEEIYQEDLIKRLESEISGDFERAMYRWMLQPADRDAVLVNVAIKNGTKDYHVIAEIACVLSAEELLAVRRAYHRRYKCSLEEDVAANTTGNLRQLLVGLVTSYRYEGDEINVKFSQTEANVLHESVKEKKGNSEEVIRILTTRSKTQLVATFNRYRDEHGISISKKLLDQTSDDFHKVLHTAIRCINDHKKYYEKVLRNAVKKFGTDEDGLSRVIVTRAEKDLKDIKELYYKRNSVHLEDEVSKETSGDYKKFLLTLLGK
modifications: Glycine max
B2: SEQID-00363 (E. coli): nutritive polypeptide (protein)
chain: ATLDSWLSNEATVARTAILNNIGADGAWVSGADSGIVVASPSTDNPDYFYTWTRDSGLVLKTLVDLFRNGDTSLLSTIENYISAQAIVQGISNPSGDLSSGAGLGEPKFNVDETAYTGSWGRPQRDGPALRATAMIGFGQWLLDNGYTSTATDIVWPLVRNDLSYVAQYWNQTGYDLWEEVNGSSFFTIAVQHRALVEGSAFATAVGSSCSWCDSQAPEILCYLQSFWTGSFILANFDSSRSGKDANTLLGSIHTFDPEAACDDSTFQPCSPRALANHKEVVDSFRSIYTLNDGLSDSEAVAVGRYPEDTYYNGNPWFLCTLAAAEQLYDALYQWDKQGSLEVTDVSLDFFKALYSDAATGTYSSSSSTYSSIVDAVKTFADGFVSIVETHAASNGSMSEQYDKSDGEQLSARDLTWSYAALLTANNRRNSVVPASWGETSASSVPGTCAATSAIGTYSSVTVTSWPSIVATGGTTTTATPTGSGSVTSTSKTTATASKTSTSTSSTSCTTPTAVAVTFDLTATTTYGENIYLVGSISQLGDWETSDGIALSADKYTSSDPLWYVTVTLPAGESFEYKFIRIESDDSVEWESDPNREYTVPQACGTSTATVTDTWR
modifications: Aspergillus niger
B3: SEQID-00338 (BS): nutritive polypeptide (protein, listed as Saccharomyces cerevisiae)
chain: MSSSESIRMVLIGPPGAGKGTQAPNLQERFHAAHLATGDMLRSQIAKGTQLGLEAKKIMDQGGLVSDDIMVNMIKDELTNNPACKNGFILDGFPRTIPQAEKLDQMLKEQGTPLEKAIELKVDDELLVARITGRLIHPASGRSYHKIFNPPKEDMKDDVTGEALVQRSDDNADALKKRLAAYHAQTEPIVDFYKKTGIWAGVDASQPPATVWADILNKLGKD
modifications: strain ATCC 204508 / S288c
B4: SEQID-00357: nutritive polypeptide (protein)
chain: MKPLNRRTKIVATIGPASNSREVLYQMIQAGMNVVRLNFSHGSHEQHTKTVALLKEISQELKTSITLLQDLQGPKIRVGQLPDGGIQLMAGEYITLVPIDQYESKPNTIAIDYLHLGEEAEIGAQVLLDDGLLELKVEEISGNQVKCKIIEGGTLKSRKGVNLPSLTLRLPSLTEKDQQDLEFGISLGVDWVSLSFVRNAEDVRVLKDFLASKNASQISVMAKIEKPQAIANLEEIISECNGLMVARGDLGVEMSPERVPLLQKQIIRLCNQKGIPVITATQMLDSMINNPRPTRAEASDVANAIIDGTDAVMLSGESAVGKYPIRAVEMLAKIAEDVEPEINFINYPPAFNDETHAISEAINTIDKIIDLHCIIAYTCSGYTGQLAAAERPKAPVVALTPNPKVYHRLNLVWGVKPLLLEQEVESFEELINQAQTYLLVRQMASPGDKILIIGGIPSGKAKGTNFIKIHTIG
modifications: Arthrospira platensis NIES-39
B5: SEQID-00346: nutritive polypeptide (protein)
chain: MYYDADANLDLLAGKTIAIVGYGSQGHAHALNLKDSGMNVIVGLYPGSKSATKAKDAGLTVYPVDEAAKIADLIMILLPDEVQKTVYKNEIEPNLSEGKTLAFAHGFNIHFGQVVPPENVDVIMVAPKGPGHLVRRTYQEGQGVPCLFAVYQDASGQARDRAMAYAKGIGGTRGGILETTFREETETDLFGEQAVLCGGLSALIKAGFETLVEAGYQPELAYFECLHEVKLIVDLVVEGGLAQMRDSISNTAEYGDYTRGPRVITDATRAEMRKILKEIQTGQFAREFVLENQSGKAGFTAMRRQEAEHPIEEVGHDLRAMFSWLKKKA
modifications: Arthrospira platensis NIES-39
B6: SEQID-00345: nutritive polypeptide (protein)
chain: MNTLDLQNQRILVTGGAGFLGKQVIDQLLKAGAKSENISVPRSHNCDLRNLEACQQAAKGQDIIIHLAAHVGGIGLNQVKPAELFYDNLMMGTQLIHSAYQAGVKKFVCVGTICAYPKFTPVPFQEDDLWNGYPEETNAPYGIAKKALLVQLQAYRQQYGFNGIYLLPVNLYGPEDNFNPKSSHVIPALVRKVYEAQQRGDKQLPVWGDGSPSREFLYSTDAARGIVMATQHYDEPDPVNLGTNSEVTIRDLVELICELMEFQGEIVWETDKPNGQPRRCLDTNRAKERFGFVAEVEFRQGLKNTIDWYRQNPDL
modifications: Arthrospira platensis NIES-39
B7: SEQID-00359: nutritive polypeptide naturally produced in Sheep, recombinantly expressed in E. coli (protein)
chain: MLELGSQRNRAKNNHIGDLMSQSFESLGISEQRARHLETLGFTEPTPVQIQAIPEMLSGRDVVGMAQTGTGKTAAFSLPILEQIDVHAAGIQALVLTPTRELAMQVKEAIRTFSDDNALYVLTVYGGQSIDRQIQRLRRGVQVVVGTPGRILDLLNRGELKLDLLRWLVLDEADEMLSMGFIQDVEKILESADSEHRQTAFFSATMDASISKLVRRHLKSPVTVKVETPKATPKRIEQSVYMVPRGWSKARALEPILELEDPESAIIFVRTKQSAADLTNQLQAAGHSVDEYHGNLNQSQRERLLMRLRRRQVRWIVATDIAARGLDVDHLTHVINYDLPDQVDSYVHRIGRTGRAGREGKAITLIQPIDRRKLRNIERHLRQTLSIQSIPKRAEIEARYIDRLKDRVRDALAGERMASFLPIVSQLSEEYDPHAIAAAALQLAYDQTRPASIGRDDYEDDDDAVSNKPKLIKRRRPASVSNNS
modifications: Arthrospira platensis NIES-39
B8: SEQID-00284: nutritive polypeptide (protein, listed as Arabidopsis thaliana)
chain: KLEHGVHVVSGTPGRVCDMIKRRSLRTRAIKLLILDESDEMLSRGFKDQIYDVYRYLPPDLQVCLVSATLPHEILEMTSKFMTEPVKILVKRDELTLEGIKQFFVAVEKEEWK
B9: SEQID-00407 (BS): a-amylase in Bacillus subtilis (amyE); Wild-type of Tables E37A and E38E (protein, listed as Bacillus subtilis)
chain: ETANKSNELTAPSIKSGTILHAWNWSFNTLKHNMKDIHDAGYTAIQTSPINQVKEGNQGDKSMSNWYWLYQPTSYQIGNRYLGTEQEFKEMCAAAEEYGIKVIVDAVINHTTSDYAAISNEVKSIPNWTHGNTQIKNWSDRWDVTQNSLLGLYDWNTQNTQVQSYLKRFLDRALNDGADGFRFDAAKHIELPDDGSYGSQFWPNITNTSAEFQYGEILQDSASRDAAYANYMDVTASNYGHSIRSALKNRNLGVSNISHYASDVSADKLVTWVESHDTYANDDEESTWMSDDDIRLGWAVIASRSGSTPLFFSRPEGGGNGVRFPGKSQIGDRGSALFEDQAITAVNRFHNVMAGQPEELSNPNGNNQIFMNQRGSHGVVLANAGSSSVSINTATKLPDGRYDNKAGAGSFQVNDGKLTGTINARSVAVLYPDDIAKAPHVFLENYKTGVTHSFNDQLTITLRADANTTKAVYQINNGPETAFKDGDQFTIGKGDPFGKTYTIMLKGTNSDGVTRTEKYSFVKRDPASAKTIGYQNPNHWSQVNAYIYKHDGSRVIELTGSWPGKPMTKNADGIYTLTLPADTDTTNAKVIFNNGSAQVPGQNQPGFDYVLNGLYNDSGLSGSLPH
modifications: strain 168
B10: SEQID-00298 (AN): nutritive polypeptide naturally produced in Cow (protein, listed as Bos taurus)
chain: MGLSDGEWQLVLNAWGKVEADVAGHGQEVLIRLFTGHPETLEKFDKFKHLKTEAEMKASEDLKKHGNTVLTALGGILKKKGHHEAEVKHLAESHANKHKIPVKYLEFISDAIIHVLHAKHPSDFGADAQAAMSKALELFRNDMAAQYKVLGFHG
B11: SEQID-00298 (BS): nutritive polypeptide naturally produced in Cow (protein, listed as Bos taurus)
chain: B10 chain
B12: SEQID-00356: nutritive polypeptide (protein)
chain: MATAAEKLSALKSAVAGLNEISENEKNGFISLVGRYLSGEAQHVEWSKIQTPTDEVVVPYDTLAPTPEGSSEVKNLLDKLVVLKLNGGLGTTMGCTGPKSVIEVRDGLTFLDLIVIQIENLNSKYGSNVPLLLMNSFNTHDDTQKIVEKYQNSNIEIHTFNQSQYPRLVVEDFLPLPSKGHTDKDGWYPPGHGDVFPSLLNSGKLDALLSQGKEYVFVANSDNLGAIVDLKILNHLIQNKNEYCMEVTPKTLADVKGGTLISYEGRVQLLEIAQVPDEHVNEFKSIEKFKIFNTNNLWVNLNAVKRLVEADALKMEIIPNPKEVDGIKVLQLETAAGAAIRFFDKAIGINVPRSRFLPVKATSDLLLVQSDLYTLEDGFVIRNKARENPENPSIELGPEFKKVSNFLGRFKSIPSIVELDSLKVAGDVWFGAGVILKGKVSIVSKPGVKLEVPDGVAIVDKEINGPEDL
modifications: Glycine max
B13: SEQID-00354: nutritive polypeptide (protein)
chain: MSLSNKLTLDKLDVKGKRVVMRVDFNVPMKNNQITNNQRIKAAVPSIKYCLDSGAKSVVLMSHLGRPDGVPMPDKYSLQPVAVELKSLLGKDVLFLKDCVGPEVEKACADPAAGSVILLENLRFHVEEEGKGKDASGNKVKAEPTKIEAFRASLSKLGDVYVNDAFGTAHRAHSSMVGVNLPKKAGGFLMKKELNYFAKALESPERPFLAILGGAKVADKIQLISNMLDKVNEMIIGGGMAFTFLKVLNNMEIGTSLFDEEGSKIVKDLMSKADKNGVKITLPVDFVTADKFDENAKTGQATVASGIPVGWMGLDCGPESSKKYAEAVARAKQIVWNGPVGVFEWEAFARGTKALMDEVVKATSRGCITIIGGGDTATCCAKWNTEDKVSHVSTGGGASLELLEGKVLPGVDALSSV
modifications: Ovis aries

experiment: Intact half-life during simulated gastric fluid (SGF) digestion; details: SGF pH 1.5, pepsin:polypeptide 1:20 w/w, 37° C.; produced in E. coli unless otherwise noted

Molecule | SGF Half-life (t½) [s]
B1 | 18
B2 | <600
B3 | 12
B4 | 12
B5 | 12
B6 | 48
B7 | 12
B8 | 60
B9 | 12
B10 | 18
B11 | 6
B12 | 12
B13 | 12
